We go through 32 molecules from US20240116985A1, “STAPLED PEPTIDES AND METHODS THEREOF” (priority 2020, published 2024).

Starred links: 1 amine or outer side, 2 acyl side, 3 side chain; linkers in the order of their positions; H or OH if unused. Positions of bridges follow the written chain, without caps; N, C: chain ends. Non-standard residues stand in square brackets, D forms with d. Primed or numbered codes have the meaning given here. *: point of attachment. PyrS2″ = (S)-3-amino-1-((pent-4-en-1-yloxy)carbonyl)pyrrolidine-3-carboxylic acid (stapling residue), C=CCCCOC(=O)N1CC[C@@](N[*:1])(C(=O)[*:2])C1; B5(4) = 2,2-bis(4-pentenyl)glycine = 2-amino-2-(pent-4-en-1-yl)hept-6-enoic acid (stitching residue), C=CCCCC(CCCC=C)(N[*:1])C(=O)[*:2]; B5(5) = 2,2-bis(4-pentenyl)glycine, 2-amino-2-(pent-4-en-1-yl)hept-6-enoic acid (stitching residue), C=CCCCC(CCCC=C)(N[*:1])C(=O)[*:2]; B5(3) = 2,2-bis(4-pentenyl)glycine (stitching residue), C=CCCCC(CCCC=C)(N[*:1])C(=O)[*:2]; Phe(2-Cl) = N[C@@H](Cc1ccccc1Cl)C(=O)O; Phe(2-OMe) = COc1ccccc1C[C@H](N)C(=O)O; 1Nal = N[C@@H](Cc1cccc2ccccc12)C(=O)O; 2Nal = N[C@@H](Cc1ccc2ccccc2c1)C(=O)O; Phe(2-F) = N[C@@H](Cc1ccccc1F)C(=O)O; Bta = N[C@@H](Cc1csc2ccccc12)C(=O)O; αAllylPro = C=CC[C@@]1(C(=O)O)CCCN1; tBuAla = CC(C)(C)C[C@H](N)C(=O)O; 3Thi = N[C@@H](Cc1ccsc1)C(=O)O; Cha = N[C@@H](CC1CCCCC1)C(=O)O; S8 = C=CCCCCCC[C@](C)(N)C(=O)O; hLeu = CC(C)CC[C@H](N)C(=O)O; Prolinol = OC[C@@H]1CCCN1*; Nle = CCCC[C@H](N)C(=O)O; Dap = NC[C@H](N)C(=O)O; Aib = CC(C)(N)C(=O)O; Ms = CS(=O)(=O)*

Assay [1] has as its target full-length beta-Catenin (Uniprot ID P35222) (Homo sapiens (Human)) (UniProt P35222). Kind of assay: fluorescence polarization competition; displacement of 5FAM-TCF4(10-53) from full-length beta-catenin.
Target sequence in this assay (P35222 whole entry, the tested form may be a part): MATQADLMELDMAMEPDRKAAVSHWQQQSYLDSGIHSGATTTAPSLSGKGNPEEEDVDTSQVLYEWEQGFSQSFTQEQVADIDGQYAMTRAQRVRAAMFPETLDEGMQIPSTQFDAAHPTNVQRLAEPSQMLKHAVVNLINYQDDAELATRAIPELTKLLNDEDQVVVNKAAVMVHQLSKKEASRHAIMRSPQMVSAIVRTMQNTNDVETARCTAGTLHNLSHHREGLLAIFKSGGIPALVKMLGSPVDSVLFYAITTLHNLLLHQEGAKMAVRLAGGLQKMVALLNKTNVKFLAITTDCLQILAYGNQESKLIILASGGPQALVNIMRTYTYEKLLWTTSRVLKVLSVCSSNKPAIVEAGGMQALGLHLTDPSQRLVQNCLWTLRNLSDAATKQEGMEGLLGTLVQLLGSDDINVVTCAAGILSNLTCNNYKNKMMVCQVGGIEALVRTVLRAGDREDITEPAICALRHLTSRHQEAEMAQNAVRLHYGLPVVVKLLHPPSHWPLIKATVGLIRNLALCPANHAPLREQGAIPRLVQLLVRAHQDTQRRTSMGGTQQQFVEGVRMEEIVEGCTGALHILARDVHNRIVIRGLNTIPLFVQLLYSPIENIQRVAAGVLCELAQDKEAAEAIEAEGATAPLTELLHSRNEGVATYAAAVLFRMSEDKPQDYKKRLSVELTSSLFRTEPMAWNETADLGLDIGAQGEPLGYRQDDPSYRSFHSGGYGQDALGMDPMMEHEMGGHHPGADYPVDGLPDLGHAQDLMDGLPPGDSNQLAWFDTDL
Assay [2] has the same target. Kind of assay: fluorescence polarization competition; full-length beta-catenin with 5FAM-labeled TCF4 residues 10-53 probe as competitor. A general note: In fluorescence polarisation assays a small probe gives low polarisation when free and higher when bound to something large.
Target sequence in this assay (P35222 whole entry, the tested form may be a part): as above
The target is the same in assay [3]. Kind of assay: fluorescence polarization competition; full-length beta-catenin, competitor 5FAM-TCF4(10-53) probe.
Target sequence in this assay (P35222 whole entry, the tested form may be a part): as above
The target is the same in assay [4]. Put plainly: fluorescence polarization competition; full-length beta-catenin + 5FAM-TCF4(10-53) probe as competitor.
Target sequence in this assay (P35222 2-781 limits assumed): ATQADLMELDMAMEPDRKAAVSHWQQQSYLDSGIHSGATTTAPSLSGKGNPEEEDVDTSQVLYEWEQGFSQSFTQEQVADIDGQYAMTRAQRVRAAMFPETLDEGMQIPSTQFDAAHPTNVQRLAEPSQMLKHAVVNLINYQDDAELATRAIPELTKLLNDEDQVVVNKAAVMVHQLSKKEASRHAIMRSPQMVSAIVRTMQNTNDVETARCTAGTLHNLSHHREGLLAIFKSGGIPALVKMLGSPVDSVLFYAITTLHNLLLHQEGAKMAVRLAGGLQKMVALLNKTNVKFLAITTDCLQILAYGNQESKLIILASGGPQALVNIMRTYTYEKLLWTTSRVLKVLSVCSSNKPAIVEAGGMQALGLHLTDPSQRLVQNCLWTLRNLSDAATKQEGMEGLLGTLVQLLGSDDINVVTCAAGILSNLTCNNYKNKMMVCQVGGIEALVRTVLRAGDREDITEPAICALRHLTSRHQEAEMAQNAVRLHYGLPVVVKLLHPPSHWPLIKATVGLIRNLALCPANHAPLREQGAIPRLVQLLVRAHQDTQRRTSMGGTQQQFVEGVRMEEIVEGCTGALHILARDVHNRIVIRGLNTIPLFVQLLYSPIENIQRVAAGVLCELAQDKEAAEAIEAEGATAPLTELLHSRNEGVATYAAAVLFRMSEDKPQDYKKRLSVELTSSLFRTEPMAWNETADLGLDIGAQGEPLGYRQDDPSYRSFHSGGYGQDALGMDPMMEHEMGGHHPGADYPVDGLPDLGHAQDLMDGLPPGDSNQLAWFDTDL
Assay [5] shares this target. Kind of assay: fluorescence polarization competition; peptide titrated against 10 nM full-length beta-catenin + 10 nM 5FAM-TCF4(10-53).
Target sequence in this assay (P35222 2-781 limits assumed): as above
The target is the same in assay [6]. Kind of assay: fluorescence polarization competition; 10 nM full-length beta-catenin + 10 nM 5FAM-TCF4(10-53) probe.
Target sequence in this assay (P35222 whole entry, the tested form may be a part): as the sequence (P35222 whole entry, the tested form may be a part) above

B1: I-555 (peptide)
peptide: Ac-[αAllylPro]DI[B5(4)]DDAAFN[S8][3Thi][Bta]H-NH2
modifications: staple 1-4, 4-11
On to B1, for which, in assay [1], the EC50 was 41 nM. The concentration for half-maximal inhibition (IC50) in assay [2] turned out to be 41 nM.

B2: I-551 (peptide)
peptide: Ac-[αAllylPro]DI[B5(4)]DDAAFN[S8][3Thi][Bta]Q-NH2
modifications: staple 1-4, 4-11
With B2, the EC50 in assay [1] worked out at 45 nM. The molecule further yielded a 50% inhibitory concentration (IC50) in assay [2] of 45 nM.

B3: I-737 (peptide)
peptide: Ac-[αAllylPro]DL[B5(5)]DEAAFN[S8]F[Bta]Q[Aib]-NH2
modifications: staple 1-4, 4-11; also: later-eluting staple isomer
Turning to B3, the IC50 in assay [3] was determined as 353 nM. The molecule further had an EC50 in assay [2] of 353 nM.

B4: I-1090 (peptide)
peptide: Ac-[αAllylPro]D[tBuAla][B5(4)]DDAAFT[S8][Phe(2-Cl)][Bta]T-NH2
modifications: staple 1-4, 4-11
With B4, the EC50 in assay [4] turned out to be 18 nM. Further, the 50% inhibitory concentration (IC50) in assay [5] worked out at 18 nM.

B5: I-728 (peptide)
peptide: Ac-[αAllylPro]DI[B5(4)]DEAA[Nle]Q[S8]F[Bta]Q-NH2
modifications: staple 1-4, 4-11
Take B5: the IC50 in assay [3] was 289 nM. Further, the EC50 in assay [2] was determined as 289 nM.

B6: I-1091 (peptide)
peptide: Ac-[αAllylPro]D[tBuAla][B5(4)]DEAAFT[S8][Phe(2-Cl)][Bta]T-NH2
modifications: staple 1-4, 4-11
Consider B6, for which the EC50 in assay [4] was determined as 27 nM. The IC50 in assay [5] amounted to 27 nM.

B7: I-1109 (peptide)
peptide: Ac-[αAllylPro]D[2Nal][B5(3)]DDAAFS[PyrS2″][Phe(2-Cl)][Bta]Q-NH2
modifications: staple 1-4, 4-11
In the case of B7, the IC50 in assay [1] was determined as 24 nM. For the same molecule, in assay [4], the EC50 is 24 nM.

B8: I-1102 (peptide)
peptide: Ac-[αAllylPro]D[Cha][B5(3)]DDAAFS[PyrS2″][Phe(2-F)][Bta]S-NH2
modifications: staple 1-4, 4-11
B8 returned an IC50 in assay [1] of 16 nM. For the same molecule, the half-maximal effective concentration (EC50) in assay [4] was 16 nM.

B9: I-1084 (peptide)
peptide: Ac-[αAllylPro]D[tBuAla][B5(4)]DDAAFN[PyrS2″][Phe(2-Cl)][Bta]-Prolinol
modifications: staple 1-4, 4-11
B9: the EC50 in assay [4] worked out at 368 nM. Also, the concentration for half-maximal inhibition (IC50) in assay [5] amounted to 368 nM.

B10: I-1088 (peptide)
peptide: Ac-[αAllylPro]D[tBuAla][B5(4)]DEAAFT[S8][Phe(2-Cl)][Bta]Q-NH2
modifications: staple 1-4, 4-11; also: earlier-eluting isomer composition
On to B10, for which, in assay [4], the EC50 amounted to 22 nM. For the same molecule, the IC50 in assay [5] stood at 22 nM.

B11: I-533 (peptide)
peptide: Ac-[αAllylPro]DA[B5(4)]D[Dap](Ms)AAFN[S8]F[Bta]Q-NH2
modifications: staple 1-4, 4-11
In the case of B11, the EC50 in assay [6] was found to be 155 nM. The same molecule showed an IC50 in assay [2] of 155 nM.

B12: I-1101 (peptide)
peptide: Ac-[αAllylPro]D[tBuAla][B5(3)]DDAAFS[PyrS2″][Phe(2-F)][Bta]S-NH2
modifications: staple 1-4, 4-11
In turn, B12 had an IC50 in assay [1] of 14 nM. The concentration for a half-maximal effect (EC50) in assay [4] was determined as 14 nM.

B13: I-1086 (peptide)
peptide: Ac-[αAllylPro]D[tBuAla][B5(4)]DDAAFT[S8][Phe(2-Cl)][Bta]Q-NH2
modifications: staple 1-4, 4-11; also: earlier-eluting HPLC peak staple isomer composition
On to B13, for which the EC50 in assay [4] is 12 nM. In assay [5], the IC50 came out at 12 nM.

B14: I-1107 (peptide)
peptide: Ac-[αAllylPro]D[Cha][B5(3)]DDAAF[Cha][PyrS2″][Phe(2-Cl)][Bta]Q-NH2
modifications: staple 1-4, 4-11
Turning to B14, the IC50 in assay [1] turned out to be 18 nM. Also, the EC50 in assay [4] came out at 18 nM.

B15: I-1104 (peptide)
peptide: Ac-[αAllylPro]D[Cha][B5(3)]DDAAFS[PyrS2″][Phe(2-OMe)][Bta]S-NH2
modifications: staple 1-4, 4-11
With B15, the IC50 in assay [1] stood at 10 nM. Besides, the concentration for a half-maximal effect (EC50) in assay [4] was determined as 10 nM.

B16: I-545 (peptide)
peptide: Ac-[αAllylPro]D[hLeu][B5(4)]DEAAFQ[S8]F[Bta]Q-NH2
modifications: staple 1-4, 4-11
The molecule B16 had an EC50 in assay [1] of 21 nM. Moreover, the IC50 in assay [2] worked out at 21 nM.

B17: I-1093 (peptide)
peptide: Ac-[αAllylPro]D[tBuAla][B5(4)]DEAAFT[S8][Phe(2-Cl)][Bta][dT]-NH2
modifications: staple 1-4, 4-11; also: earlier eluting HPLC peak staple isomer composition
B17: in assay [1], the IC50 came out at 43 nM. Moreover, in assay [4], the EC50 was 43 nM.

B18: I-544 (peptide)
peptide: Ac-[αAllylPro]D[tBuAla][B5(4)]DEAAFQ[S8]F[Bta]Q-NH2
modifications: staple 1-4, 4-11
In the case of B18, in assay [1], the EC50 stood at 24 nM. Besides, the half-inhibitory concentration (IC50) in assay [2] came to 24 nM.

B19: I-534 (peptide)
peptide: Ac-[αAllylPro][Dap](Ms)A[B5(4)]DEAAFN[S8]F[Bta]Q-NH2
modifications: staple 1-4, 4-11
As for B19, the EC50 in assay [6] turned out to be 5000 nM. Moreover, in assay [2], the IC50 was found to be 5000 nM.

B20: I-1108 (peptide)
peptide: Ac-[αAllylPro]D[1Nal][B5(3)]DDAAFS[PyrS2″][Phe(2-Cl)][Bta]Q-NH2
modifications: staple 1-4, 4-11
In assay [1], B20 came in with a concentration for half-maximal inhibition (IC50) of 18 nM. The EC50 in assay [4] turned out to be 18 nM.

B21: I-1112 (peptide)
peptide: Ac-[αAllylPro]D[Cha][B5(5)]DDAAFL[PyrS2″][Phe(2-Cl)][Bta]S-NH2
modifications: staple 1-4, 4-11
Molecule B21 gave an IC50 in assay [1] of 40 nM. The EC50 in assay [4] turned out to be 40 nM.

B22: I-743 (peptide)
peptide: Ac-[αAllylPro]DL[B5(5)]DEAAFN[S8]F[Bta]H[Aib]-NH2
modifications: staple 1-4, 4-11
Molecule B22 displayed an IC50 in assay [3] of 85 nM. The molecule further registered an EC50 in assay [2] of 85 nM.

B23: I-736 (peptide)
peptide: Ac-[αAllylPro]DL[B5(5)]DEAAFN[S8]F[Bta]Q[Aib]-NH2
modifications: staple 1-4, 4-11; also: earlier-eluting staple isomer
In assay [3], B23 gave an IC50 of 440 nM. Moreover, in assay [2], the EC50 amounted to 440 nM.

B24: I-1094 (peptide)
peptide: Ac-[αAllylPro]D[tBuAla][B5(4)]DEAAFT[S8][Phe(2-Cl)][Bta][dT]-NH2
modifications: staple 1-4, 4-11; also: later eluting HPLC peak staple isomer composition
As to B24, the IC50 in assay [1] came to 46 nM. In assay [4], the EC50 was determined as 46 nM.

B25: I-552 (peptide)
peptide: Ac-[αAllylPro]DI[B5(4)]DDAAFN[S8][3Thi][Bta]Q-NH2
modifications: staple 1-4, 4-11
In the case of B25, the EC50 in assay [1] amounted to 15.5 nM. This molecule showed an IC50 in assay [2] of 15.5 nM.

B26: I-1098 (peptide)
peptide: Ac-[αAllylPro]D[tBuAla][B5(5)]DEAAFL[S8][Phe(2-Cl)][Bta][dT]-NH2
modifications: staple 1-4, 4-11
B26: the IC50 in assay [1] is 100 nM. For the same molecule, the EC50 in assay [4] was 100 nM.

B27: I-1100 (peptide)
peptide: Ac-[αAllylPro]D[Cha][B5(3)]DDAAFS[PyrS2″]F[Bta]S-NH2
modifications: staple 1-4, 4-11
B27 yielded an IC50 in assay [1] of 16 nM. Further, in assay [4], the EC50 was 16 nM.

B28: I-1103 (peptide)
peptide: Ac-[αAllylPro]D[tBuAla][B5(3)]DDAAFS[PyrS2″][Phe(2-OMe)][Bta]S-NH2
modifications: staple 1-4, 4-11
On to B28, for which the IC50 in assay [1] was 15 nM. The half-maximal effective concentration (EC50) in assay [4] came out at 15 nM.

B29: I-727 (peptide)
peptide: Ac-[αAllylPro]DI[B5(4)]DEAA[tBuAla]Q[S8]F[Bta]Q-NH2
modifications: staple 1-4, 4-11
Regarding B29, the IC50 in assay [3] was found to be 5000 nM. Further, the EC50 in assay [2] stood at 5000 nM.

B30: I-556 (peptide)
peptide: Ac-[αAllylPro]DI[B5(4)]DDAAFN[S8][3Thi][Bta]H-NH2
modifications: staple 1-4, 4-11
B30 had an EC50 in assay [1] of 20 nM. For the same molecule, the IC50 in assay [2] came to 20 nM.

B31: I-1096 (peptide)
peptide: Ac-[αAllylPro]D[tBuAla][B5(3)]DEAAFL[S8][Phe(2-Cl)][Bta]Q-NH2
modifications: staple 1-4, 4-11
On to B31, for which the IC50 in assay [1] turned out to be 17 nM. In addition, the EC50 in assay [4] turned out to be 17 nM.

B32: I-1089 (peptide)
peptide: Ac-[αAllylPro]D[tBuAla][B5(4)]DEAAFT[S8][Phe(2-Cl)][Bta]Q-NH2
modifications: staple 1-4, 4-11; also: later-eluting isomer composition
As to B32, in assay [4], the EC50 amounted to 12 nM. Further, the IC50 in assay [5] was 12 nM.

As a reminder, the EC50 is the midpoint of the concentration-response curve. What is called IC50 is the point on the concentration scale where inhibition reaches its midpoint.
